From the supplement of paper PMC10724198
± gives the standard deviation of the averaged measurements.

Columns and labels:
[1] = system: Saccharomyces cerevisiae; assay: protein stability index of tFT-peptide fusion in deletion strain of DAS1 (PSI (0-1 scale)); higher = more stable (slower turnover)
Protocol: (§1)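 MPS profiling in S. cerevisiae of two library types built from selected 12-aa C-degron peptides (IN1, IN2, LN1, LN3, VN2, R1-R5, W1-W3, Atg1 and Rpa12 C-termini): saturation mutagenesis libraries and C-terminal +1 capping libraries (13 aa). Each peptide is fused to the C-terminus of a sfGFP-mCherry timer, after a GGGS linker. Cells are FACS-sorted into 8 mCherry/sfGFP bins and sequenced. PSI runs from 0 (unstable) to 1 (stable), measured once in wild type and in the das1Δ or doa10Δ background.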

[2] = system: Saccharomyces cerevisiae; assay: protein stability index of tFT-peptide fusion in wild type (PSI (0-1 scale)); higher = more stable (slower turnover); conditions: genetic background: wild type
Protocol: as §1

[3] = system: Saccharomyces cerevisiae; assay: protein stability index of tFT-peptide fusion (C-terminal peptide) (PSI (0-1 scale)); higher = more stable (slower turnover); conditions: temperature: 30 C
Protocol: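 MPS profiling in S. cerevisiae of the yeast C-terminome library: the last 12 aa of each annotated ORF are fused to the C-terminus of a sfGFP-mCherry timer, after a GGGS linker. Cells are FACS-sorted into 8 mCherry/sfGFP bins and deep-sequenced. PSI runs from 0 (unstable) to 1 (stable); wild type and das1Δ backgrounds, two technical replicates each.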

[4] = genetic background: das1 deletion
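Throughout, for protein stability index of tFT-peptide fusion in deletion strain of DAS1: PSI is a weighted mean of each variant's read distribution over the sorted stability bins, computed only for variants having over 10 reads in total.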
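Throughout, for protein stability index of tFT-peptide fusion in wild type: PSI derived as read-weighted mean over the 8 sorting bins, only variants exceeding 10 total reads kept, mCherry placed adjacent to the peptide and sfGFP distal.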

Sequence | protein stability index [1] | protein stability index [2] | protein stability index [3, 4] | protein stability index ([3]; genetic background: wild type)
PSLTASFWRVVG | 0.693 | 0.156 | – | –
VRGCVGGWRLVG | 0.655 | 0.148 | – | –
PSLAAWFWRVVG | 0.706 | 0.147 | – | –
LVFYLSCVACIN | 0.0573 | 0.016 | – | –
ESLAASFWRVVG | 0.689 | 0.136 | – | –
RLIQPLPVKFLN | 0.584 | 0.184 | – | –
LKILRQKMNHDN | 0.671 | 0.39 | – | –
KKHKKGRKQKIN | 0.586 | 0.0973 | – | –
LVVQLSCVACIN | 0.0857 | 0.0253 | – | –
LVVELSCVACIN | 0.0632 | 0.0174 | – | –
LKILRQKMNHYN | 0.657 | 0.223 | – | –
KVHKKGQKQKIN | 0.64 | 0.0686 | – | –
FSMRCTFRYWVN | 0.522 | 0.0458 | – | –
LVVYGSCVACIN | 0.305 | 0.245 | – | –
LKILSQKMNHQN | 0.681 | 0.232 | – | –
KKHKKGQKQKSN | 0.615 | 0.553 | – | –
KKHKKGMKQKIN | 0.659 | 0.0523 | – | –
RLIQPQPVQFLN | 0.593 | 0.0694 | – | –
LKILRQKMAHQN | 0.673 | 0.178 | – | –
ARWRVGLWRGAP | 0.681 | 0.662 | – | –
RLSQPLPVQFLN | 0.607 | 0.0622 | – | –

Sequence | protein stability index [1] | protein stability index [2] | protein stability index [3, 4] | protein stability index ([3]; genetic background: wild type)
PFLAASFWRVVG | 0.693 | 0.154 | – | –
ARWRVGLWRGVS | 0.689 | 0.122 | – | –
PDKRNHLCKLLN | 0.665 | 0.131 | – | –
MKHKKGQKQKIN | 0.649 | 0.0627 | – | –
FSMRITFRYWVN | 0.336 | 0.0393 | – | –
LVVYLSCVACYN | 0.0338 | 0.0154 | – | –
LVVYLSCHACIN | 0.0466 | 0.0126 | – | –
RLIQPVPVQFLN | 0.583 | 0.123 | – | –
CTSCGYKFRTAN | 0.673 | 0.27 | – | –
LVDYLSCVACIN | 0.354 | 0.21 | – | –
FSMRWTFRAWVN | 0.425 | 0.104 | – | –
VLIQPLPVQFLN | 0.603 | 0.0725 | – | –
ARWRVGLWRGASV | 0.676 | 0.675 | – | –
ARWRVHLWRGAS | 0.695 | 0.294 | – | –
VRTAVGGWRLVG | 0.678 | 0.137 | – | –
LKILRQKMNHQNN | 0.671 | 0.585 | – | –
PDQRNHLIKLLN | 0.585 | 0.136 | – | –
LKILRSKMNHQN | 0.666 | 0.208 | – | –
PSLAASFWRVVGW | 0.699 | 0.714 | – | –
FSMFWTFRYWVN | 0.403 | 0.0733 | – | –
VRGAVGGWSLVG | 0.689 | 0.633 | – | –

Sequence | protein stability index [1] | protein stability index [2] | protein stability index [3, 4] | protein stability index ([3]; genetic background: wild type)
CFSCGYKFRTNN | 0.682 | 0.188 | – | –
KKHKKGQIQKIN | 0.569 | 0.109 | – | –
ARWRVGLWRGAT | 0.683 | 0.447 | – | –
KKHKIGQKQKIN | 0.563 | 0.142 | – | –
VLGAVGGWRLVG | 0.673 | 0.133 | – | –
VRGAVGGWTLVG | 0.664 | 0.49 | – | –
PSLAASFTRVVG | 0.648 | 0.647 | – | –
VKILRQKMNHQN | 0.67 | 0.174 | – | –
VGGAVGGWRLVG | 0.67 | 0.156 | – | –
VRGAVGGWRLVS | 0.686 | 0.148 | – | –
PSLAASFWRVIG | 0.677 | 0.151 | – | –
CTSCGYCFRTNN | 0.7 | 0.261 | – | –
PDKRNHLIDLLN | 0.624 | 0.591 | – | –
RRIQPLPVQFLN | 0.601 | 0.0626 | – | –
VRGWVGGWRLVG | 0.681 | 0.134 | – | –
LVVYLSCVACFN | 0.076 | 0.0281 | – | –
CTSCWYKFRTNN | 0.672 | 0.168 | – | –
ARWEVGLWRGAS | 0.648 | 0.458 | – | –
FSMRYTFRYWVN | 0.648 | 0.0639 | – | –
KKNKKGQKQKIN | 0.598 | 0.141 | – | –
PSLAASFLRVVG | 0.642 | 0.641 | – | –

Sequence | protein stability index [1] | protein stability index [2] | protein stability index [3, 4] | protein stability index ([3]; genetic background: wild type)
PSLAASFQRVVG | 0.672 | 0.692 | – | –
PDKRNHYIKLLN | 0.683 | 0.0965 | – | –
FSMRWTMRYWVN | 0.482 | 0.0449 | – | –
PDGRNHLIKLLN | 0.601 | 0.161 | – | –
HLIQPLPVQFLN | 0.713 | 0.13 | – | –
ILKKNPDYREEE [RPN1 C-terminal 12 aa] | – | – | 0.696 ± 0.0054 | 0.7029 ± 0.0058
PEMIEELDIDDE [GPD2 C-terminal 12 aa] | – | – | 0.707 ± 0.018 | 0.658 ± 0.015
KQKDKEKNALLL [YBR113W C-terminal 12 aa] | – | – | 0.689 ± 0.016 | 0.6802 ± 0.0029
RRPAVIKALRGE [URE2 C-terminal 12 aa] | – | – | 0.6904 ± 0.00095 | 0.693 ± 0.023
QEKEHKKHTVAR [CAJ1 C-terminal 12 aa] | – | – | 0.694 ± 0.011 | 0.672 ± 0.014
AIRRGLTKKNEK [GDE1 C-terminal 12 aa] | – | – | 0.72 ± 0.013 | 0.65687 ± 0.00059
SFSDLTLHAIEY [BER1 C-terminal 12 aa] | – | – | 0.724 ± 0.031 | 0.69 ± 0.019
SRLFSEEKSSVH [YJL150W C-terminal 12 aa] | – | – | 0.7239 ± 0.0066 | 0.694 ± 0.024
TIDFFDPVKLKR [YEL025C C-terminal 12 aa] | – | – | 0.724 ± 0.008 | 0.755 ± 0.015
SITLDDLENIFN [GDS1 C-terminal 12 aa] | – | – | 0.735 ± 0.026 | 0.711 ± 0.021
RQEYKFKKSLLT [YKL131W C-terminal 12 aa] | – | – | 0.679 ± 0.018 | 0.625 ± 0.012
SAYMYTKRRFGF [MNR2 C-terminal 12 aa] | – | – | 0.712 ± 0.021 | 0.647 ± 0.017
YLLGIYRDNKKC [ALG5 C-terminal 12 aa] | – | – | 0.727 ± 0.0028 | 0.6693 ± 0.0016
TNGNKSCLYWRV [FMP25 C-terminal 12 aa] | – | – | 0.678 ± 0.012 | 0.66 ± 0.044
